The values that follow come from patent US20130209454A1 (CALIFORNIA INSTITUTE OF TECHNOLOGY, published 2013).

What all share (assay): cell-based or functional assay
For assay [1], the target named is HIV-1 Env of strain X1254_c3 (HIV-1).
The target in assay [2] is HIV-1 Env of strain Du156.12 (HIV-1).
For assay [3], the target named is HIV-1 Env of strain REJO4541.67 (HIV-1).
The target in assay [4] is HIV-1 Env of strain 3301.v1.c24 (HIV-1).
The target in assay [5] is HIV-1 Env of strain Q769.d22 (HIV-1).
In assay [6] the target is HIV-1 Env of strain CNE53 (HIV-1).
Assay [7] has as its target HIV-1 Env of strain CAP45.2.00.G3 (HIV-1).
Assay [8] concerns the target HIV-1 Env of strain Du422.1 (HIV-1).
Assay [9] concerns the target HIV-1 Env of strain CAP210.2.00.E8 (HIV-1).
In assay [10] the target is HIV-1 Env of strain 3817.v2.c59 (HIV-1).
Assay [11] concerns the target HIV-1 Env of strain T278-50 (HIV-1).
Assay [12] concerns the target HIV-1 Env of strain Du172.17 (HIV-1).
In assay [13] the target is HIV-1 Env of strain C2101.c01 (HIV-1).
Assay [14] deals with HIV-1 Env of strain ZM247v1(Rev-) (HIV-1).
Assay [15] addresses HIV-1 Env of strain Ce1176_A3 (HIV-1).
Assay [16] has as its target HIV-1 Env of strain 6535.3 (HIV-1).
Assay [17] deals with HIV-1 Env of strain Ce703010054_2A2 (HIV-1).
Assay [18] concerns the target HIV-1 Env of strain CAAN5342.A2 (HIV-1).
The target of assay [19] is HIV-1 Env of strain PVO.4 (HIV-1).
In assay [20] the target is HIV-1 Env of strain Ce2010_F5 (HIV-1).
Assay [21] has as its target HIV-1 Env of strain ZM109F.PB4 (HIV-1).
The target of assay [22] is HIV-1 Env of strain WITO4160.33 (HIV-1).
In assay [23] the target is HIV-1 Env of strain TROJO4551.58 (HIV-1).
Assay [24] concerns the target HIV-1 Env of strain R2184.c04 (HIV-1).

B1: NIH45-46 IgG (antibody, V domains shown)
VH: QVRLSQSGGQMKKPGESMRLSCRASGYEFLNCPINWIRLAPGRRPEWMGWLKPRGGAVNYARKFQGRVTMTRDVYSDTAFLELRSLTSDDTAVYFCTRGKYCTARDYYNWDFEHWGRGAPVTVSS
VL: EIVLTQSPATLSLSPGETAIISCRTSQSGSLAWYQQRPGQAPRLVIYSGSTRAAGIPDRFSGSRWGADYNLSISNLESGDFGVYYCQQYEFFGQGTKVQVDI
For the molecule B1, the “neutralization IC50” value in assay [1] was 0.032 µg/mL; in [2] it was 0.02 µg/mL; in assay [3] it was 0.014 µg/mL; in assay [4] it was 0.009 µg/mL; in [5], 0.009 µg/mL; in [6] it was 0.008 µg/mL. The “neutralization IC50” value in [7], in [8], in [9], in [10], in [11] and in assay [12] was greater than 50 µg/mL in each case. Also, the “neutralization IC50” value in assay [13] was determined as 4.24 µg/mL; in assay [14], 2.94 µg/mL; in [15], 0.93 µg/mL; in assay [16], 0.23 µg/mL; in assay [17], 0.159 µg/mL; in assay [18], 0.15 µg/mL. The “neutralization IC50” value in assay [19] was found to be 0.12 µg/mL; in assay [20], 0.101 µg/mL; in assay [21], 0.095 µg/mL; in assay [22], 0.06 µg/mL; in [23], 0.04 µg/mL; in [24], 0.034 µg/mL.
